Test results published in patent publication US20230227838A1, “ENHANCED CELL SURVIVAL AGAINST BIOTIC AND ABIOTIC STRESSES THROUGH SALICYLICK ACID-INDUCED NPR1 CONDENSATES” (priority 2020, published 2023).

Test system: CUL3
Assay: BiFC assay of interaction with CUL3
Assay type: cell-based, Arabidopsis thaliana
Conditions: 1 mM SA for 5 hr
Excerpt: Plasmid construction and E. coli-based ubiquitination: The coding sequences for all Arabidopsis genes were amplified from cDNA. Point mutations of AtNPR1 (AT1G64280) were generated using the QuikChange II site-directed mutagenesis kit (Agilent). Overlap PCR was used to generate the deletion/truncation mutations of AtCUL3A (AT1G26830) and AtNPR1. The WT and mutated coding sequences for all genes and gene fusions were sub-cloned into the pDONR207 gateway donor vector and confirmed by sequencing. The obtained entry vectors were recombined into either plant or E. coli destination vectors without or with an N- or C-terminal tag. For in planta expression, genes were recombined into the plant binary vectors pK7FWG2, pSITE-4NB and pLN462 to generate C-terminal eGFP, mCherry and HA fusions, respectively; into pK7WGF2, pEG201, pEG202, pEG203 and pEG204 to generate N-terminal eGFP, HA, FLAG, Myc and V5 fusions, respectively. For co-expression of NPR1 and CUL3 in E. coli, NPR1 or its mutant/truncation variants were first recombined into pDEST15 vector to generate N-terminal GST fusions (GST-NPR1). Next, E. coli-codon-optimized coding sequence of AtCUL3A fused to the Myc tag was amplified from pEG203-CUL3 and inserted between NdeI and XhoI in the MCS-II of pCDFDuet-1 to generate pCDFDuet-1:Myc-CUL3 plasmid. The two plasmids, pDEST15-NPR1 and pCDFDuet-1:Myc-CUL3, were co-transformed into the E. coli strain BL21(DE3) and protein expression was induced with 0.25 mM IPTG for 12 hr at 20° C. For co-expression of NPR1 and EDS1 in E. coli, the coding sequence of AtEDS1 (AT3G48090) fused to FLAG tag was inserted between NcoI and NotI in MCS-I of pETDuet-1 to first generate the pETDuet-1:FLAG-EDS1 plasmid. […] For bimolecular fluorescence complementation (BiFC), entry vectors carrying the coding sequences of genes and their mutant variants were recombined into the pSITE-cEYFP-N1 binary vector for C-terminal fusion with the cYFP half (YC), or into the pSITE-nEYFP-C1 for N-terminal fusion with the nYFP half (YN). […]

Molecule	BiFC signal of interaction with CUL3
NPR1: wild-type Arabidopsis thaliana NPR1 protein, positive regulator of systemic acquired resistance	clear interactions with CUL3 in discrete cytoplasmic condensates
sim3: SUMOylation-deficient mutant of NPR1 (protein, left off: small tags and cut ends, SUMOylation-deficient mutant of NPR1) MDTTIDGFADSYEISSTSFVATDNTDSSIVYLAAEQVLTGPDVSALQLLSNSFESVFDSPDDFYSDAKLVLSDGREVSFHRCVLSARSSFFKSALAAAKKEKDSNNTAAVKLELKEIAKDYEVGFDSVVTVLAYVYSSRVRPPPKGVSECADENCCHVACRPAVDFMLEVLYLAFIFKIPELITLYQRHLLDVVDKVVIEDTLVILKLANICGKACMKLLDRCKEIIVKSNVDMVSLEKSLPEELVKEIIDRRKELGLEVPKVKKHVSNVHKALDSDDIELVKLLLKEDHTNLDDACALHFAVAYCNVKTATDLLKLDLADVNHRNPRGYTVLHVAAMRKEPQLAASALEKGASASEATLEGRTALMIAKQATMAVECNNIPEQCKHSLKGRLCVEILEQEDKREQIPRDVPPSFAVAADELKMTLLDLENRVALAQRLFPTEAQAAMEIAEMKGTCEFIVTSLEPDRLTGTKRTSPGVKIAPFRILEEHQSRLKALSKTVELGKRFFPRCSAVLDQIMNCEDLTQLACGEDDTAEKRLQKKQRYMEIQETLKKAFSEDNLELGNSSLTDSTSSTSKSTGGKRSNRKLSHRRR	more intense
S55/59D: phosphomimic mutant of NPR1 at S55/59 (protein, left off: small tags and cut ends) MDTTIDGFADSYEISSTSFVATDNTDSSIVYLAAEQVLTGPDVSALQLLSNSFEDVFDDPDDFYSDAKLVLSDGREVSFHRCVLSARSSFFKSALAAAKKEKDSNNTAAVKLELKEIAKDYEVGFDSVVTVLAYVYSSRVRPPPKGVSECADENCCHVACRPAVDFMLEVLYLAFIFKIPELITLYQRHLLDVVDKVVIEDTLVILKLANICGKACMKLLDRCKEIIVKSNVDMVSLEKSLPEELVKEIIDRRKELGLEVPKVKKHVSNVHKALDSDDIELVKLLLKEDHTNLDDACALHFAVAYCNVKTATDLLKLDLADVNHRNPRGYTVLHVAAMRKEPQLILSLLEKGASASEATLEGRTALMIAKQATMAVECNNIPEQCKHSLKGRLCVEILEQEDKREQIPRDVPPSFAVAADELKMTLLDLENRVALAQRLFPTEAQAAMEIAEMKGTCEFIVTSLEPDRLTGTKRTSPGVKIAPFRILEEHQSRLKALSKTVELGKRFFPRCSAVLDQIMNCEDLTQLACGEDDTAEKRLQKKQRYMEIQETLKKAFSEDNLELGNSSLTDSTSSTSKSTGGKRSNRKLSHRRR	significantly weaker BiFC signal
